Where no end group is shown, it is not given here. Ahx = NCCCCCC(=O)O
Tests used:
[1] = target: Nucleolin (cell surface, MDA-MB-231 cells) (Homo sapiens, UniProt P19338); experiment: iodinated HB-19 cell binding displaced by unlabeled HB-19
[2] = target: Nucleolin (cell surface, HUVECs) (Homo sapiens, UniProt P19338); experiment: as above
Nucleolin (cell surface, HUVECs), sequence (P19338 2-710): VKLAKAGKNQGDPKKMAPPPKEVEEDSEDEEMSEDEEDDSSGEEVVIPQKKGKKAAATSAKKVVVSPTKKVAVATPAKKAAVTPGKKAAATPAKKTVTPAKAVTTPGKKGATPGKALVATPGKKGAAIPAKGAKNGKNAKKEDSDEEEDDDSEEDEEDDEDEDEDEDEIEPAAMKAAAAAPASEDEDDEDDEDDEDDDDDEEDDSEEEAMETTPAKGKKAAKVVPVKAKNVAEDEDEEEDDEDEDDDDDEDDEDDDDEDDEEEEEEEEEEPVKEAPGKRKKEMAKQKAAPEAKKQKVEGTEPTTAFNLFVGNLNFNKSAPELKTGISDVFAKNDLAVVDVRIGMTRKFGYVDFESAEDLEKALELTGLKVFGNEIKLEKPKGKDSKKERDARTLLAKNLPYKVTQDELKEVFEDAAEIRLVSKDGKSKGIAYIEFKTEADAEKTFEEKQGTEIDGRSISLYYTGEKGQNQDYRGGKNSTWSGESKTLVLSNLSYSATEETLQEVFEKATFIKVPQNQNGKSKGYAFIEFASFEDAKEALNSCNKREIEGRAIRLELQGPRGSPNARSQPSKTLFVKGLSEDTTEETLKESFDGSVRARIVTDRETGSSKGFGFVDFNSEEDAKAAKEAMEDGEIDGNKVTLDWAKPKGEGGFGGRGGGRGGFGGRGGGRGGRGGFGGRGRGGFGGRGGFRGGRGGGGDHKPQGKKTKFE

Nucleolin (cell surface, MDA-MB-231 cells), sequence (P19338 2-710): as above

B1: HB-19 pseudopeptide (peptide)
chain: KKKGPKEK-{Ahx-NH2}
modifications: also: pentavalent Lys-psi(CH2N)-Pro-Arg on template, attachment places not given here, reduced psi(CH2N) bond Lys-Pro
A Kd [1] of 312 nM and a Kd [2] of 825 nM were found for B1 in this work.
